Assay results from US20080058263A1 (published 2008).

T1: VEGFR-3-Fc (UniProt P35916 25-328)
T1 construct: domain: first three Ig domains; conditioned supernatant of 293T cells; also called VEGFR-3-Fc fusion protein; not shown: Fc fragment of the pIg vector
T1 sequence (looked up): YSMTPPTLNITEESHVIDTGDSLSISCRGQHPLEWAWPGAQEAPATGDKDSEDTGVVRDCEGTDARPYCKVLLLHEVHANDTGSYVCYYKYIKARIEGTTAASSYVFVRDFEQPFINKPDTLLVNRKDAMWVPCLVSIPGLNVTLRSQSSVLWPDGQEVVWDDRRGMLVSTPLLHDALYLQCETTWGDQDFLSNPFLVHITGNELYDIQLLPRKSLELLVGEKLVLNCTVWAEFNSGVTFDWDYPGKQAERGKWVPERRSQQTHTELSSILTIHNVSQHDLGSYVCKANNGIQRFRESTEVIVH


Tests used:
Experiment in all cases: receptor-Fc IP
VEGFR-2-Fc = biological target: T2, VEGFR-2-Fc (UniProt P35968 20-322)
T2 construct: domain: first 3 Ig domains; conditioned supernatant of 293T cells; also called VEGFR-2-Fc fusion protein; not shown: Fc fragment of the pIg vector
T2 sequence (P35968 20-322): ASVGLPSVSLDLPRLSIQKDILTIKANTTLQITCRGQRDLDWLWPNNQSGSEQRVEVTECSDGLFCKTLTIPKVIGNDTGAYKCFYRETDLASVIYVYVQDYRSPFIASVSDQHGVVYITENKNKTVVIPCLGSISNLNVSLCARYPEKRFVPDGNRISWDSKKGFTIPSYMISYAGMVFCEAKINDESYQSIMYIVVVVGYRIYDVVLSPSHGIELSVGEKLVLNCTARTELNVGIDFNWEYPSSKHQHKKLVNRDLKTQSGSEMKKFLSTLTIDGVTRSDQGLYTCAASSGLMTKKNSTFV
Experimental: (§1) The binding assay procedure was identical to the immunoprecipitation using pentahistidine antibody described in Example 2, apart from the composition of the immunoprecipitation (IP) mixes. The IP mixes used for the receptor binding analysis were as follows: For VEGFR-1 binding assays, the IP mix was phosphate buffered saline (PBS) containing 1.5% BSA, 0.06% Tween 20, 3 μg/ml heparin and 400 ng/ml VEGFR-1-Fc fusion protein (100 μl of this IP mix was added to 200 μl of sample supernatant); for VEGFR-2 binding assays, the IP mix was 82% conditioned cell supernatant from 293T cells transiently expressing VEGFR-2-Fc fusion protein in mixture with 18% of a PBS solution that contained 5% BSA, 0.2% Tween 20, and 10 μg/ml heparin (250 μl of IP mix was added to 200 μl of sample supernatant); and for VEGFR-3 binding assays, the IP mix was 82% conditioned cell supernatant from 293T cells transiently expressing VEGFR-3-Fc fusion protein, 18% of PBS containing 5% BSA, 0.2% Tween 20, and 10 μg/ml heparin (250 μl of IP mix was added to 200 μl of sample supernatant).

VEGFR-3-Fc = biological target: T1, VEGFR-3-Fc
Experimental: as §1

VEGFR-1-Fc = biological target: T3, VEGFR-1-Fc (UniProt P17948 27-338)
T3 construct: domain: first three Ig domains; expressed in Drosophila S2 cells, purified on Protein A sepharose; also called VEGFR-1-Fc fusion protein; not shown: Fc fragment from the Signal-pIgPlus vector
T3 sequence (P17948 27-338): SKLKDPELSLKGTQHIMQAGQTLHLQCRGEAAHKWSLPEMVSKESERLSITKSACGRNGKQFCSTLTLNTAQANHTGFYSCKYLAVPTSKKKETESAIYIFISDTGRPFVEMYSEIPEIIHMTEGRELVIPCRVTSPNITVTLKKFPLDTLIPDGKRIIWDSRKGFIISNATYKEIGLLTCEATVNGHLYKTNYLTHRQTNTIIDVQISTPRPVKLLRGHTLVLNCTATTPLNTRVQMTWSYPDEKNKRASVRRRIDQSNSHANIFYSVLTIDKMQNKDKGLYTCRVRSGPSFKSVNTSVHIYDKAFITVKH
Experimental: as §1

Binder | binding result (VEGFR-2-Fc) | binding result (VEGFR-3-Fc) | binding result (VEGFR-1-Fc)
73-16 (ligand) GQNHHEVVKSIDNEWRKTQCMPREVCIDVGKEYPDEIEYIFKPPCVSVYRCGGCCNSEGLQCMNTSTSYLSKTLFEITVPLSQGPKPVTISFANHTSCRCMSKLD | no binding | no binding | no binding
33-1 (ligand) GQNHHEVVKSIDNEWRKTQCMPIETLVDIFQEYPDEIEYIFKPPCVSVYRCGGCCNDEGLECVPTEESNITMQIMRIKPHQGQHIGEMSFLQHNKCECRPKKD | binds | no binding | no binding
33-3 (ligand) GQNHHEVVKSIDNEWRKTQCMPIETLVDIFQEYPDEIEYIFKPPCVSVYRCGGCCNSEGLQCVPTEESNITMQIMRIKPHQGQHIGEMSFLQHNKCECRPKKD | binds | no binding | no binding
73-9 (ligand) GQNHHEVVKSIDNEWRKTQCMPREVCIDVGKEYPDEIEYIFKPPCVSVYRCGGCCNDEGLECVPTEESNITMQIMRITVPLSQGPKPVTISFLQHNKCECRPKKD | no binding | no binding | no binding
21-9 (ligand) AHYNTEILKSIDNEWRKTQCMPREVCIDVGKEYPDEIEYIFKPSCVPLMRCGGCCNDEGLECVPTEESNITMQIMRITVPLSQGPKPVTISFLQHNKCECRPKKD | no binding | no binding | no binding
23-9 (ligand) AHYNTEILKSIDNEWRKTQCMPREVCIDVGKEYPDEIEYIFKPPCVSVYRCGGCCNDEGLECVPTEESNITMQIMRITVPLSQGPKPVTISFLQHNKCECRPKKD | no binding | no binding | no binding
33-9 (ligand) GQNHHEVVKSIDNEWRKTQCMPIETLVDIFQEYPDEIEYIFKPPCVSVYRCGGCCNDEGLECVPTEESNITMQIMRITVPLSQGPKPVTISFLQHNKCECRPKKD | binds | no binding | no binding
72-11 (ligand) GQNHHEVVKSIDNEWRKTQCMPREVCIDVGKEFGVATNTFFKPPCVSVYRCGGCCNSEGLQCVPTEESNITMQIMRITVPLSQGPKPVTISFLQHNKCECRPKKD | no binding | no binding | no binding
73-11 (ligand) GQNHHEVVKSIDNEWRKTQCMPREVCIDVGKEYPDEIEYIFKPPCVSVYRCGGCCNSEGLQCVPTEESNITMQIMRITVPLSQGPKPVTISFLQHNKCECRPKKD | no binding | no binding | no binding
73-13 (ligand) GQNHHEVVKSIDNEWRKTQCMPREVCIDVGKEYPDEIEYIFKPPCVSVYRCGGCCNDEGLECVPTEESNITMQIMRITVPLSQGPKPVTISFANHTSCRCMSKLD | no binding | no binding | no binding
74-9 (ligand) GQNHHEVVKSIDNEWRKTQCMPREVCIDVGKEFGVATNTFFKPSCVPLMRCGGCCNDEGLECVPTEESNITMQIMRITVPLSQGPKPVTISFLQHNKCECRPKKD | no binding | no binding | no binding
41-3 (ligand) AHYNTEILKFMDVYQRSYCHPREVCIDVGKEYPDEIEYIFKPSCVPLMRCGGCCNSEGLQCVPTEESNITMQIMRIKPHQGQHIGEMSFLQHNKCECRPKKD | no binding | no binding | no binding
41-1 (ligand) AHYNTEILKFMDVYQRSYCHPREVCIDVGKEYPDEIEYIFKPSCVPLMRCGGCCNDEGLECVPTEESNITMQIMRIKPHQGQHIGEMSFLQHNKCECRPKKD | no binding | no binding | binds
41-5 (ligand) AHYNTEILKFMDVYQRSYCHPREVCIDVGKEYPDEIEYIFKPSCVPLMRCGGCCNDEGLECVPTEESNITMQIMRIKPHQGQHIGEMSFANHTSCRCMSKLD | no binding | no binding | no binding
42-3 (ligand) AHYNTEILKFMDVYQRSYCHPREVCIDVGKEFGVATNTFFKPPCVSVYRCGGCCNSEGLQCVPTEESNITMQIMRIKPHQGQHIGEMSFLQHNKCECRPKKD | no binding | no binding | no binding
43-1 (ligand) AHYNTEILKFMDVYQRSYCHPREVCIDVGKEYPDEIEYIFKPPCVSVYRCGGCCNDEGLECVPTEESNITMQIMRIKPHQGQHIGEMSFLQHNKCECRPKKD | no binding | no binding | binds
43-3 (ligand) AHYNTEILKFMDVYQRSYCHPREVCIDVGKEYPDEIEYIFKPPCVSVYRCGGCCNSEGLQCVPTEESNITMQIMRIKPHQGQHIGEMSFLQHNKCECRPKKD | no binding | no binding | no binding
43-7 (ligand) AHYNTEILKFMDVYQRSYCHPREVCIDVGKEYPDEIEYIFKPPCVSVYRCGGCCNSEGLQCVPTEESNITMQIMRIKPHQGQHIGEMSFANHTSCRCMSKLD | no binding | no binding | no binding
44-1 (ligand) AHYNTEILKFMDVYQRSYCHPREVCIDVGKEFGVATNTFFKPSCVPLMRCGGCCNDEGLECVPTEESNITMQIMRIKPHQGQHIGEMSFLQHNKCECRPKKD | no binding | no binding | no binding
44-3 (ligand) AHYNTEILKFMDVYQRSYCHPREVCIDVGKEFGVATNTFFKPSCVPLMRCGGCCNSEGLQCVPTEESNITMQIMRIKPHQGQHIGEMSFLQHNKCECRPKKD | no binding | no binding | no binding
